Measured values from article PMC2413007 (2008).
No end group written: not given here. Pam2 = lipid part of the lipopeptide Pam2CSK4

Molecular target: soluble form of human recombinant TLR2 (extracellular domain Glu 21-Leu 590) (human, UniProt O60603 21-590)
Sequence (O60603 21-590): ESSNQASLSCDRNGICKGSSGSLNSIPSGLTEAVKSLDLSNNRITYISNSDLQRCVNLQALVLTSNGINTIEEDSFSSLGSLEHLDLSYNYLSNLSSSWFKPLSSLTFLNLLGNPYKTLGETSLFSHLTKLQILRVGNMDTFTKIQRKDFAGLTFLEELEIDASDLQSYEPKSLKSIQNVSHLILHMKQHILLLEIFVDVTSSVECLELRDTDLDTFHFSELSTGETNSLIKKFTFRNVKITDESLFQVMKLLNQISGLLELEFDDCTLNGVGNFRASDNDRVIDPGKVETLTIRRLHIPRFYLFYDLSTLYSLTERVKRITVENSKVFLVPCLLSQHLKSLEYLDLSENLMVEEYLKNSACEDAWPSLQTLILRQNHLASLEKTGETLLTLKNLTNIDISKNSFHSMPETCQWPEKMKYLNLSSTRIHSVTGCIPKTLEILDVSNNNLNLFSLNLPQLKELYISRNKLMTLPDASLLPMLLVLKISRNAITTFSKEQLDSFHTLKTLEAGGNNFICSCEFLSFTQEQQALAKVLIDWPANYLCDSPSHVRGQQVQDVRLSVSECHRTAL

Binder: C(Pam2)SKKKK [Pam2CSK4 lipopeptide]
- Kd: 5.34 µM
